According to US20220017622A1 (Pfizer, published 2022):
Where a chain is given by its changes, count along the chain named.

T1: human B7-H4 on cells (human, UniProt Q7Z7D3 25-282)
T1 sequence (looked up): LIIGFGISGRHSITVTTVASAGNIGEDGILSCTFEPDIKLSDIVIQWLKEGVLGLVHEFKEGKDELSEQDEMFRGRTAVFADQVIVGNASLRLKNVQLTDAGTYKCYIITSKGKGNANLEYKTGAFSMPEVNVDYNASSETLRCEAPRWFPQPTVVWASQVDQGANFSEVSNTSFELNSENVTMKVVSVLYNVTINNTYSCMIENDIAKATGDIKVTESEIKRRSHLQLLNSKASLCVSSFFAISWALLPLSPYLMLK

B1: B7-H4xCD3 bispecific antibody 1130 (bispecific antibody, IgG2)
heavy 1: EVQLVESGGGLVQPGGSLRLSCAASGGSFSGYYWNWIRQPPGKGLEWIGEINHSGSATYNPSLKSRVTISVDTAKNSLYLQMNSLRAEDTAVYYCARGLYNWNVDHWGQGTLVTVSSASTKGPSVFPLAPCSRSTSESTAALGCLVKDYFPEPVTVSWNSGALTSGVHTFPAVLQSSGLYSLSSVVTVPSSNFGTQTYTCNVDHKPSNTKVDKTVERKCEVECPECPAPPVAGPSVFLFPPKPKDTLMISRTPEVTCVVVAVSHEDPEVQFNWYVDGVEVHNAKTKPREEQFNSTFRVVSVLTVVHQDWLNGKEYKCKVSNKGLPSSIEKTISKTKGQPREPQVYTLPPSREEMTKNQVSLTCEVKGFYPSDIAVEWESNGQPENNYKTTPPMLDSDGSFFLYSKLTVDKSRWQQGNVFSCSVMHEALHNHYTQKSLSLSPG
light 1: DIQMTQSPSSLSASVGDRVTITCRASQGIRNDLGWYQQKPGKAPKRLIYAASSLQSGVPSRFSGSGSGTDFTLTISSLQPEDFATYYCLQHNAYPRTFGGGTKVEIKRTVAAPSVFIFPPSDEQLKSGTASVVCLLNNFYPREAKVQWKVDNALQSGNSQESVTEQDSKDSTYSLSSTLTLSKADYEKHKVYACEVTHQGLSSPVTKSFNRGEC
heavy 2: EVQLVESGGGLVQPGGSLRLSCAASGFTFSDYYMTWVRQAPGKGLEWVAFIRNQARGYTSDHNPSVKGRFTISRDNAKNSLYLQMNSLRAEDTAVYYCARDRPSYYVLDYWGQGTTVTVSSASTKGPSVFPLAPCSRSTSESTAALGCLVKDYFPEPVTVSWNSGALTSGVHTFPAVLQSSGLYSLSSVVTVPSSNFGTQTYTCNVDHKPSNTKVDKTVERKCRVRCPRCPAPPVAGPSVFLFPPKPKDTLMISRTPEVTCVVVAVSHEDPEVQFNWYVDGVEVHNAKTKPREEQFNSTFRVVSVLTVVHQDWLNGKEYKCKVSNKGLPSSIEKTISKTKGQPREPQVYTLPPSREEMTKNQVSLTCLVKGFYPSDIAVEWESNGQPENNYKTTPPMLDSDGSFFLYSRLTVDKSRWQQGNVFSCSVMHEALHNHYTQKSLSLSPGK
light 2: DIQMTQSPSSLSASVGDRVTITCTSSQSLFNVRSQKNYLAWYQQKPGKAPKLLIYWASTRESGVPSRFSGSGSGTDFTLTISSLQPEDFATYYCKQSYDLFTFGGGTKVEIKRTVAAPSVFIFPPSDEQLKSGTASVVCLLNNFYPREAKVQWKVDNALQSGNSQESVTEQDSKDSTYSLSSTLTLSKADYEKHKVYACEVTHQGLSSPVTKSFNRGEC
B2: B7-H4xCD3 bispecific antibody 1135 (bispecific antibody, IgG2)
heavy 1: B1 heavy 1 with I37V, P40A
light 1: B1 light 1
heavy 2: B1 heavy 2
light 2: B1 light 2
B3: B7-H4xCD3 bispecific antibody 1166 (bispecific antibody, IgG2)
heavy 1: EVQLLESGGGLVQPGGSLRLSCAASGFTFSSYAMSWVRQAPGKGLEWVSAISGGGGSTYYADSVKGRFTISRDNSKNTLYLQMNSLRAEDTAVYYCARDIQWYGESTLFDYWGQGTLVTVSSASTKGPSVFPLAPCSRSTSESTAALGCLVKDYFPEPVTVSWNSGALTSGVHTFPAVLQSSGLYSLSSVVTVPSSNFGTQTYTCNVDHKPSNTKVDKTVERKCEVECPECPAPPVAGPSVFLFPPKPKDTLMISRTPEVTCVVVAVSHEDPEVQFNWYVDGVEVHNAKTKPREEQFNSTFRVVSVLTVVHQDWLNGKEYKCKVSNKGLPSSIEKTISKTKGQPREPQVYTLPPSREEMTKNQVSLTCEVKGFYPSDIAVEWESNGQPENNYKTTPPMLDSDGSFFLYSKLTVDKSRWQQGNVFSCSVMHEALHNHYTQKSLSLSPG
light 1: DIQMTQSPSSLSASVGDRVTITCRASQSTRSWLAWYQQKPGKAPKLLIYKASSLEGGVPSRFSGSGSGTDFTLTISSLQPEDFATYYCQQYGSYSRTFGQGTKVEIKRTVAAPSVFIFPPSDEQLKSGTASVVCLLNNFYPREAKVQWKVDNALQSGNSQESVTEQDSKDSTYSLSSTLTLSKADYEKHKVYACEVTHQGLSSPVTKSFNRGEC
heavy 2: B1 heavy 2
light 2: B1 light 2
B4: B7-H4xCD3 bispecific antibody 0974 (bispecific antibody, IgG2)
heavy 1: B1 heavy 1 with N52D, S54Q, A57T, T58K
light 1: B1 light 1
heavy 2: B1 heavy 2
light 2: B1 light 2
B5: B7-H4xCD3 bispecific antibody 0976 (bispecific antibody, IgG2)
heavy 1: B1 heavy 1 with A24V, N52D, S54Q, A57T, T58K, G98E
light 1: B1 light 1
heavy 2: B1 heavy 2
light 2: B1 light 2
B6: B7-H4xCD3 bispecific antibody 0978 (bispecific antibody, IgG2)
heavy 1: B1 heavy 1 with N52D, S54Q, A57T, T58K, G98E
light 1: B1 light 1 with N92S, A93S
heavy 2: B1 heavy 2
light 2: B1 light 2
B7: B7-H4xCD3 bispecific antibody 0090 (bispecific antibody, human IgG1, kappa)
heavy 1: QVQLQQWGAGLLKPSETLSLTCAVYGGSFSGYYWNWIRQPPGKGLEWIGEINHSGSTKYNPSLKSRVTISGDTSKNQFSLKLNSVTAADTAVYYCVRGLYNWNVDSWGQGTLVTVSSASTKGPSVFPLAPSSKSTSGGTAALGCLVKDYFPEPVTVSWNSGALTSGVHTFPAVLQSSGLYSLSSVVTVPSSSLGTQTYICNVNHKPSNTKVDKKVEPKSCDKTHTCPPCPAPEAAGAPSVFLFPPKPKDTLMISRTPEVTCVVVDVSHEDPEVKFNWYVDGVEVHNAKTKPREEQYNSTYRVVSVLTVLHQDWLNGKEYKCKVSNKALPAPIEKTISKAKGQPREPQVYTLPPSREEMTKNQVSLTCEVKGFYPSDIAVEWESNGQPENNYKTTPPVLDSDGSFFLYSKLTVDKSRWQQGNVFSCSVMHEALHNHYTQKSLSLSPG
light 1: B1 light 1 with A50V, D70E, A93S, R96Y, G100Q, V104L
heavy 2: EVQLVESGGGLVQPGGSLRLSCAASGFTFSDYYMTWVRQAPGKGLEWVAFIRNQARGYTSDHNPSVKGRFTISRDNAKNSLYLQMNSLRAEDTAVYYCARDRPSYYVLDYWGQGTTVTVSSASTKGPSVFPLAPSSKSTSGGTAALGCLVKDYFPEPVTVSWNSGALTSGVHTFPAVLQSSGLYSLSSVVTVPSSSLGTQTYICNVNHKPSNTKVDKKVEPKSCDKTHTCPPCPAPEAAGAPSVFLFPPKPKDTLMISRTPEVTCVVVDVSHEDPEVKFNWYVDGVEVHNAKTKPREEQYNSTYRVVSVLTVLHQDWLNGKEYKCKVSNKALPAPIEKTISKAKGQPREPQVYTLPPSREEMTKNQVSLTCLVKGFYPSDIAVEWESNGQPENNYKTTPPVLDSDGSFFLYSRLTVDKSRWQQGNVFSCSVMHEALHNHYTQKSLSLSPG
light 2: B1 light 2
B8: B7-H4xCD3 bispecific antibody 0980 (bispecific antibody, IgG2)
heavy 1: B1 heavy 1 with N52D, S54Q, A57T, T58K
light 1: B1 light 1 with N92S, A93S
heavy 2: B1 heavy 2
light 2: B1 light 2
B9: B7-H4xCD3 bispecific antibody 0982 (bispecific antibody, IgG2)
heavy 1: B1 heavy 1 with A24V, N52D, S54Q, A57T, T58K, G98E
light 1: B1 light 1 with N92S, A93S
heavy 2: B1 heavy 2
light 2: B1 light 2

The binders below were run against T1, human B7-H4 on cells (assay: cell-based or functional assay).
Throughout, for T cell mediated tumor cell killing, OVCAR3-Luc: unit not given here.

Row | Binder | T cell mediated tumor cell killing EC50, HCC1954-Luc [nM] | T cell mediated tumor cell killing, OVCAR3-Luc
1 | B1 | 73700 | 810
2 | B2 | 1200 | 420
3 | B3 | 15500 | 800
4 | B4 | 764 | 
5 | B5 | 2170 | 
6 | B6 | 320 | 
7 | B7 | 68 | 
8 | B8 | 390 | 
9 | B9 | 2650 | 
